In patent publication US8129349B2, “Treatment of disease by inducing cell apoptosis” (The Regents of the University of California, priority 2000, dated 2012):
No end group written: not given here.

Key:
[1] = target: T1, procaspase 1 (Homo sapiens, UniProt P29466); test: Co-immunoprecipitation of purified recombinant procaspase 1 with recombinant C/EBPβ peptides; type: binding; conditions: peptides 200 μM, procaspase 1 0.6 U, quantitated by densitometry
T1 construct: purchased Alexis Biochemicals 201-056
T1 sequence (P29466 1-404): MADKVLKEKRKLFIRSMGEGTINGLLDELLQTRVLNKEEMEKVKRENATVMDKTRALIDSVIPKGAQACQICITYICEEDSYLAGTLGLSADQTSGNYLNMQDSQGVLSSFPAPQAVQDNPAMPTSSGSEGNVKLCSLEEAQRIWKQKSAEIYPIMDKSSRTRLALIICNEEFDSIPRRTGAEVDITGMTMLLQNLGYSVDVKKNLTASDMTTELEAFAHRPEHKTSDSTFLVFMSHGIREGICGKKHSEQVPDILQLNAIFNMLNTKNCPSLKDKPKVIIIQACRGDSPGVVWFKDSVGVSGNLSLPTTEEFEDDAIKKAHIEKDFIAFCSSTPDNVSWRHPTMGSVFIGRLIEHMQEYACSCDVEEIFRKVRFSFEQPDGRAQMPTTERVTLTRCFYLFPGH
Protocol: (§1) FIG. 5 provides results showing the direct association of C/EBPβ-Glu^217 with procaspases 1 and 8. […] Enzyme activity was measured in the absence (control) or presence of C/EBPβ peptides (200 μM) for 2 h, using a procaspases 1 (1U) (not shown) and 8 (0.2 μg) activity assay. Values are presented as the mean±one half the range of duplicates. Panel C provides results for cells cultured on a collagen type I matrix and incubated with the indicated cell permeant, purified synthetic N-acetyl, C-aldehyde C/EBPβ tetra-peptides (10 μM) or with recombinant C/EBPβ-HA peptides as indicated, together with the Chariot reagent (Active Motif) for 4 h. Control cells were incubated without peptides (P<0.05 for all peptides containing Ala^217).
(§2) Purified recombinant C/EBPβ peptides, expressed as known in the art (See, Descombes et al., supra; and Buck et al. (1994), supra), and purified synthetic N-acetyl, C-aldehyde tetrapeptides (200 μM) (American Peptide Company) were assayed for their ability to inhibit the activity of purified human recombinant caspases 1 (catalogue # 201-056) and 8 (catalogue # 201-041-C005) (Alexis Biochemicals). The sequence of caspase 8 includes Ser217 through Asp479 cloned into an expression vector containing a 21 amino acid linker at the N-terminus. Thus, the prodomain (first 220 amino acids) is essentially missing. The fragment is cleaved at Asp385 and the active caspases are essentially identical to those identified in apoptotic cells (Stennicke and Salvesen, Meth. Enzymol., 322:91-100 (1997)). Caspase activity was determined by the release of the p-nitroaniline colorimetric (Alexis Biochemicals) substrate for caspase 1 (catalogue # 260-026) or 8 (catalogue # 260-045) within the linear part of the kinetic assay (Thornberry et al. (1997), supra; Stennicke and Salvesen, supra). Caspase 1 and 8 activity in cells was performed with colorimetric kits (catalogues # 850-211-K and 850-221-K) as described by the manufacturer (Alexis) (See also, Thornberry et al. (1997), supra). The caspase 8 inhibitor IETD was from Calbiochem (Catalogue # 218773).
To delineate the role of C/EBPβ on the activation of procaspases 1 and 8, the self-activation of recombinant procaspases 1 and 8 was induced in vitro (Wilson et al., supra; Margolin et al., supra; and Earnshaw et al., supra), and the effect of purified recombinant C/EBPβ peptides, produced as described previously (Descombes et al., supra; and Buck et al., (1994), supra) on this process was determined. Consistent with the in vivo results described above, C/EBPβ-HA-Glu^217 and C/EBPβ 216-253-HA-Glu^217, but not C/EBPβ-HA-Ala^217, peptides associated with procaspases 1 and 8 (See, FIG. 5, Panel A). […]

[2] = tested on: hepatic stellate cells; test: Apoptosis of activated stellate cells transfected with C/EBPβ constructs, annexin-V-PE binding; type: cell-based, mouse; conditions: for Rescue from induced apoptosis by expressed construct: apoptosis induced by dominant negative MEKK1, IκBα or RSK mutants or by lactacystin; for Effect of expressed construct on apoptosis / survival of stellate cells: transfected cells on collagen type I matrix
Excerpt: FIG. 1 provides data showing that phosphorylation of C/EBPβ on Thr^217 is required for hepatic stellate cell survival. Panel A provides phosphopeptide maps of in vivo labeled endogenous C/EBPβ in day-4 quiescent and activated primary mouse stellate cells cultured from the time of isolation on EHS or collagen type I matrix, respectively. The arrow indicates the peptide containing Phospho-Thr^217 in activated cells. […] Panel B provides phosphopeptide maps of in vitro labeled C/EPBβ. Active p90RSK phosphorylated C/EPBβ, but not C/EBPβ-Ala^217 on Thr^217 in vitro (arrowheads). Panel C provides results for cells cultured on collagen type I transfected with MSV-C/EBPβ antisense (AS), MSV-C/EBPβ sense (S), or MSV-C/EBPβ-Ala^217 together with CMV-GFP (green fluorescent protein) and p90RSK (1 μg each), as indicated in the Figure. Four hours after transfection, annexin-V-PE binding to plasma membranes was determined. The values presented are the percentage of transfected cells (green) that were annexin-V-PE (+) (red) (P<0.05 for C/EBPβ AS, and C/EBPβ-Ala^217). Panel D provides results for cells transfected as in […] with vectors expressing dominant negative mutants for MEKK1, IκBα, or p90RSK, or treated with the proteasome inhibitor lactacystin (10 μM) (closed bars), and co-transfected with MSV-C/EBPβ-Glu^217 (1 μg each) (open bars) as indicated. Annexin-V-PE binding was determined as described for Panel A (P<0.05 for C/EBPβ-Glu^217). Panel E provides results for cells transfected as described for Panel C, with a dominant-negative p90RSK, treated with FAS (100 nM for 6 hours) or cultured in a serum-free medium for 6 hours (closed bars), and co-transfected with MSV-C/EBPβ-Glu^217 (1 μg each) (open bars), as indicated. Cell death was determined by nuclear staining with Hoechst 33342 (P<0.05 for C/EBPβ-Glu^217 in RSK mut and FAS-treated cells).
FIG. 4 provides results showing that C/EBPβ PThr^217 associates with procaspases 1 and 8, and inhibits their activation. Panel A provides schematic representations of C/EBPβ peptides. The activation (dotted bars), DNA binding (solid bars) and dimerization (hatched bars) domains are shown. […] Panel C provides results showing that C/EBPβ and procaspase 8 were detected in activated stellate cells isolated from C/EBPβ^+/+ mice by confocal microscopy using specific antibodies (Santa Cruz Biotechnology). Control C/EBPβ^−/− stellate cells were negative for C/EBPβ, positive for procaspase 8, and apoptotic. Panel D provides immunoblot results for MSV vectors expressing C/EBPβ-HA (hemagglutinin protein) peptides (0.3 μg) transfected into activated stellate cells. The expressed peptides were immunoprecipitated with anti-HA antibodies. C/EBPβ-PThr^217 was detected using a specific antibody, only in cells expressing wild-type C/EBPβ. […] RSK was associated with all C/EBPβ peptides. Neither C/EBPβ nor procaspases 1 and 8 were detected in C/EBPβ immunoprecipitates from cells expressing C/EBPβ AS. Reciprocal immunoprecipitations of procaspases and RSK confirmed these associations.
Adult male Sprague-Dawley rats and adult male C/EBPβ^+/+ and C/EBPβ^−/− (Screpanti et al., supra; and Buck et al., (1999), supra), C/EBPβ-Ala^217 and C/EBPβ-Asp^105 transgenic mice were used for the isolation of primary hepatic stellate cells (Houglum et al., supra). Primary hepatic stellate cells were isolated by collagenase/pronase perfusion and purified by a single step density Nycodenz gradient (Accurate Chemical & Scientific) as known in the art (See, Lee et al., (1995), supra). Cells were plated on type I collagen matrix (Becton Dickinson) or EHS matrix (Matrigel, Collaborative Biomedical Products). Cells were cultured with 10% fetal calf serum/10% fetal bovine serum and transfected with lipofectamine (GIBCO) for DNA vectors or with the Chariot reagent (Active Motif) for peptides (10 μM) as known in the art (See, Houglum et al., supra; and Morris et al., J. Biol. Chem., 274:24942-24946 (1999)). […]

[3] = target: procaspase 8 (Homo sapiens, UniProt Q14790); test: Co-immunoprecipitation of purified recombinant procaspase 8 with recombinant C/EBPβ peptides; type: binding; set-up: 21 amino acid linker (vector-derived) (N); purchased Alexis Biochemicals 201-041-C005; conditions: peptides 200 μM, procaspase 8 0.12 μg, quantitated by densitometry
procaspase 8, sequence (Q14790 217-479): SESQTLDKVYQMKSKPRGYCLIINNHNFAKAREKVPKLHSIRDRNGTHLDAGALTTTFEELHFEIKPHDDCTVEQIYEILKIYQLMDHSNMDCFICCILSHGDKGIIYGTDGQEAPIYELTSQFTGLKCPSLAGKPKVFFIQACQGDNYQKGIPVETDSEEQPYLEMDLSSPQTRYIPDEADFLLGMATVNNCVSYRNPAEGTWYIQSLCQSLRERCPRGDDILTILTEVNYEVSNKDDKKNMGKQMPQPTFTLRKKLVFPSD
Protocol: as §1
as §2, with “The fragment is cleaved at Asp385 and the active caspases are essentially identical to those identified in apoptotic cells (Stennicke and Salvesen, Meth. Enzymol., 322:91-100 (1997)).” left out, “Caspase 1 and 8 activity in cells was performed with colorimetric kits (catalogues # 850-211-K and 850-221-K) as described by the manufacturer (Alexis) (See also, Thornberry et al. (1997), supra). The caspase 8 inhibitor IETD was from Calbiochem (Catalogue # 218773).” left out
To delineate the role of C/EBPβ on the activation of procaspases 1 and 8, the self-activation of recombinant procaspases 1 and 8 was induced in vitro (Wilson et al., supra; Margolin et al., supra; and Earnshaw et al., supra), and the effect of purified recombinant C/EBPβ peptides, produced as described previously (Descombes et al., supra; and Buck et al., (1994), supra) on this process was determined. […]

With “C/EBPβ 216-253-Glu^217: C/EBPβ fragment 216-253 with Glu^217, lacking the activation and dimerization domains (KEVDKLSDEYKMRRERNNIAVRKSRDKAKMRNLETQHK; left off: small tags and cut ends)” the “Co-immunoprecipitation of procaspase 1, fold more than the Ala^217 peptides” value [1] was 7 fold, the “Rescue from induced apoptosis by expressed construct” value [2] was “sufficient to rescue cells from apoptosis” and the “Co-immunoprecipitation of procaspase 8, fold more than the Ala^217 peptides” value [3] was 12 fold.

For “C/EBPβ216-253-HA-Glu^217: purified recombinant HA tagged C/EBPβ 216-253 peptide with Glu^217 (KEVDKLSDEYKMRRERNNIAVRKSRDKAKMRNLETQHK; also: HA tag (place not given here))”, the “Co-immunoprecipitation of procaspase 1, fold more than the Ala^217 peptides” value [1] was “about 7 fold” and the “Co-immunoprecipitation of procaspase 8, fold more than the Ala^217 peptides” value [3] was roughly 12 fold.

In the case of “C/EBPβ 216-253-Ala^217: C/EBPβ fragment 216-253 with Ala^217, lacking the activation and dimerization domains (KAVDKLSDEYKMRRERNNIAVRKSRDKAKMRNLETQHK; left off: small tags and cut ends)”, the “Effect of expressed construct on apoptosis / survival of stellate cells” value [2] is reported as “induced apoptosis”.

B1: C/EBPβ-HA-Glu^217: purified recombinant HA (hemagglutinin) tagged C/EBPβ-Glu^217 peptide (protein)
chain: MHRLLAWDAACLPPPPAAFRPMEVANFYYEPDCLAYGAKAARAAPRAPAAEPAIGEHERAIDFSPYLEPLAPAADFAAPAPAHHDFLSDLFADDYGAKPSKKPADYGYVSLGRAGAKAAPPACFPPPPPAALKAEPGFEPADCKRADDAPAMAAGFPFALRAYLGYQATPSGSSGSLSTSSSSSPPGTPSPADAKAAPAACFAGPPAAPAKAKAKKEVDKLSDEYKMRRERNNIAVRKSRDKAKMRNLETQHKVLELTAENERLQKKVEQLSRELSTLRNLFKQLPEPLLASAGHC
modifications: left off: small tags and cut ends
notes: purified recombinant HA (hemagglutinin) tagged C/EBPβ-Glu^217 peptide
B1 was tested, and the “Co-immunoprecipitation of procaspase 1, fold more than the Ala^217 peptides” value [1] was “about 7 fold”.

B2: rC/EBPβ-Ala^105: modified rat C/EBPβ with mutation of Ser^105 to Ala (SEQ ID NO:14), nonphosphorylatable mutant (protein, listed as Rattus norvegicus)
chain: MHRLLAWDAACLPPPPAAFRPMEVANFYYEPDCLAYGAKAARAAPRAPAAEPAIGEHERAIDFSPYLEPLAPAAADFAAPAPAHHDFLSDLFADDYGAKPSKKPADYGYVSLGRAGAKAAPPACFPPPPPAALKAEPGFEPADCKRADDAPAMAAGFPFALRAYLGYQATPSGSSGSLSTSSSSSPPGTPSPADAKAAPAACFAGPPAAPAKAKAKKAVDKLSDEYKMRRERNNIAVRKSRDKAKMRNLETQHKVLELTAENERLQKKVEQLSRELSTLRNLFKQLPEPLLASAGHC
For B2, the “Effect of expressed construct on apoptosis / survival of stellate cells” value [2] was “induced apoptosis”.

B3: rC/EBPβ-Asp^105: modified rat C/EBPβ with mutation of Ser^105 to aspartic acid (SEQ ID NO:15), phosphorylation mimic (protein, listed as Rattus norvegicus)
chain: MHRLLAWDAACLPPPPAAFRPMEVANFYYEPDCLAYGAKAARAAPRAPAAEPAIGEHERAIDFSPYLEPLAPAAADFAAPAPAHHDFLSDLFADDYGAKPSKKPDDYGYVSLGRAGAKAAPPACFPPPPPAALKAEPGFEPADCKRADDAPAMAAGFPFALRAYLGYQATPSGSSGSLSTSSSSSPPGTPSPADAKAAPAACFAGPPAAPAKAKAKKAVDKLSDEYKMRRERNNIAVRKSRDKAKMRNLETQHKVLELTAENERLQKKVEQLSRELSTLRNLFKQLPEPLLASAGHC
In the case of B3, the “Rescue from induced apoptosis by expressed construct” value [2] is reported as “rescued”.
